Measured values published in the supplement of paper PMC10567573.

B1: CLPTM1 (parent)
chain: MNLHVYISEHEHFTDFNATSALFW

Variants of: B1
Assay: protein stability index of a GFP-peptide fusion (GPS, HEK-293T) (PSI 1-6); higher = more stable
Conditions: c terminus: a fixed tail appended
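Also: lentivirally expressed fusions sorted by FACS into six bins by GFP to DsRed ratio, PSI derived from sequencing read proportions per bin multiplied by bin number.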

Protein stability index, by site and new letter:
S8: R 3.37; L 2.96; H 3.35; T 2.08; P 3.32; I 1.69
L3: V 1.14; M 2.18; C 1.94; R 1.96; W 1.98; S 2.15; Q 1.42; D 2.44; T 1.47; F 2.7; E 2.62; N 1.2; K 1.9; P 1.52; G 2.78; I 3.08
T19: V 1.89; M 1.52; E 2.59; I 3.09; W 1.67; H 2.99; Y 2.08; D 2.48; N 3.66; R 2.89; C 2.92
W24: R 2.96; T 3.19; E 4.09; H 1.75; N 2.98; D 3.34; K 1.88; C 1.83; Q 2.2; Y 2.95; F 4.25; P 2.76; I 1.93; S 3.64; L 4.15
A18: F 4.2; Q 5.84; L 2.01; M 4.1; H 3.29; G 3.77; R 3.55; E 1.97; V 2.92; S 2.46; K 4.8; W 2.76; T 1.84
H12: Y 2.77; P 2.64; S 1.83; M 2.39; F 3.38; Q 1.98; T 2.1; W 3.67; L 1.41; C 2.72
M1: P 1.93; Q 2.58; N 3.69; V 3.6; G 2.8; K 2.95; Y 2.55; T 2.97; F 2.29; S 2.69; I 3.18; R 2.51
N2: Y 2.55; S 4.89; Q 1; M 2.77; I 2.04; D 1.53; T 2.58; C 2.73; V 3.88; G 2.73; F 3.32; P 1.55; L 2.57
D15: Q 2.3; E 2.73; W 3.89; S 4.3; M 3; T 3.63; C 2.43; A 3.71; Y 2.52; K 2.71
H4: W 4.27; K 1.99; Y 4.32; L 2.97; I 2.62; R 5.47; E 1.45; P 1.43; M 2.69; Q 2.12; F 1.89
S20: D 4.08; Q 2.59; F 2.51; I 2.69; N 3.39; V 2.29; G 2.69; K 3.57; C 2.75; A 4.95; H 4.53; T 4.14; E 2.37; R 2.1; Y 3.45; M 2.64
V5: D 2.1; H 2.42; L 2.05; Q 1.48; I 3.89; K 2.01; M 3.04; A 2.42; Y 2.24; N 1.39; W 4.32; S 3.51; T 1.76; E 1.34
A21: T 2.67; H 2.09; N 2.35; E 2.62; I 2.59; C 3.19; K 3.78; F 1.95; V 2.4; G 3.69
H10: C 2.77; P 2.64; T 3.76; S 2.59; G 2.58; M 2.73; I 1.28; V 1.99; D 2.41; E 2.77
